For 17 sequences, protein production results are on record in a protein production outcome set (Wang et al. 2014).

This data set in a line: label from the status in PepcDB records.
Regarding “MTSQVANPPVQSIRLLFSALLLVMLLSALDQTIVSTALPTIVGELGGLDKLSWVVTAYILSSTIAVPLYGKFGDLFGRKIVLQVAIGLFLVGSALCGLAQNMTQLVLMRGLQGLGGGGLMVISMAAVADVIPPANRGRYQGLFGGVFGLATVIGPLIGGFLVQHASWRWIFYINLPLGLFALLVIGAVFHSSNKRSQHQIDWLGAIYLSMALLCIILFTSEGGSVHAWNDPQLWCILAFGIVGIIGFIYEERMAAEPIIPLALFRNRSFLLCSLIGFVIGMSLFGSVTFLPLYLQVVKEATPTEAGLQLIPLMGGLLLTSIISGRIISRTGKYRLFPILGTLLGVTGMVLLTRITIHSPLWQLYLFTGVLGAGLGLVMQVLVLAVQNAMPAQMYGVATSGVTLFRSIGGSIGVALFGAVFTHVLQSNLQQLLPEGAVLPPGMNPVAVQHLPADIRLDYLDAFGAAIHAAFLMAAGIMAVAFVLSWLLKEAPLKTATH”, the protein production entry is on record as “failed”.

Consider “MTSSSPPAIPADARRQHAERTTLVSAAVNCALSAGQIAAGLWSHSQGLVADGLHTLSDLIADGIVFIANRNSHKGPDEDHQYGHARYENAASLGLGLLLMAAGAGMIWSALASLSAPHGAAPVHGLALWVALAALAAKEGLFRYMLAVARRIGSRMLVANAWHARSDAVSSLVAAVGVAGNLMGFRWLDPVAACVVGAMIGRVGIRFGWEALNDLMDRALPPAQVQAIRASLAATPGVINVHDLRTRVTGDQALVDAHIEVDPRVSVSEGHAIAVRARANVLAAHTAMAVLDVQLHVDPRERVYTDPLPLPDRDALCAVLAQALPPGTPLDARHCLLHYVEGGVEVDLILPPSLADHAAPVAETVRARWHGRVRLRALTAASGATARGPVRP”, for which the protein production entry is on record as “failed”.

Regarding “MTSTASSTDIRQGQAADEQWPSWQQRLRRFGYTAPPRTDVRDRLVPPFSEPSPRLWAAIGLRQEVADRVTRWSAWGGPLLVTLLAGLLRFWNLGSPKAVIFDETYYAKDAWALIHNGYEANWAKDANDLILQGNGHVAIPTDPAYVVHPPVGKYVIGLGEWLFGFTPFGWRFMTALLGTLSVLLLCRIGRRLFRSTFLGCLAGALMAVDGLHFVMSRTSLLDGVLMFFVLAAFGCLVVDRDRARARLAAALPADADGVVRPDAHTAETTRLGPRPWRWLAGLMLGLALGTKWNALYVMAAFCVMAVLWDVGSRRVAGARRPYAAVLRRDTGITFLATVPVAVATYLVSWTGWILSPANGSGGYFRNWAATDGKGGHWTWLPDWLRSLWHYEHEVYEFHVGLSSPHQYQSNPWSWLVAGRPVSYFYESPSPGKDGCPADAGEKCAREVLALGTPLLWWAACFAVLYVLWRWLFRRDWRAGAIACGIAAGWLPWMMYQERTIFYFYAVVFVPFLCLAVAMMIGAILGPPGSGERRRVVGAAGAGVLVLLIAWNFIYFWPLYTGTAIPIDDWRSRMWLDTWV”, the protein production entry was “failed”.

As for “MTTALRQPTLSSQCLAEFLGTALLIFFGTGCVAALKVAGASFGLWEISIIWGVGVSMAIYLTAGISGAHLNPAVSIALTLFAGFDKRKLPFYMLAQVCGAFCGAALVYTLYSNLFFDFEQAHAMLRGSEGSLELASVFSTYPHPSLSTSQAFLVEVVITAILMAVIMALTDDNNGLPRGAMAPLLIGLLIAVIGSAMGPLTGFAMNPARDFGPKLMTFLAGWGEIAFTGGRDIPYFLVPVFAPILGACLGAASYRGLIARNLPMAPAATPETNDIRQGDTQAN”, the protein production entry is given as “failed”.

For “MTTASGPGDLPAGSPVSSLHEALDQCMTALDLFLTNQFSEALSYLKPRTKESMYHSLTYATILEMQAMMTFDPQDILLAGNMMKEAQSLCQRHRRKSSMTDSFSNLVHRPTIDQFTEEEIHAEVCYAECLLQRAALTFLQDENMVSFIKGGIKVRNSYQTYKELDSLVQSSQYSKGESHRHFEGGVKLGVGAFNLTLSMLPTRILRLLEFVGFSGNKDYGLLQLEEGATGHSFRAVLCVMLLLCYHTFLTFVLGTGNVNIEEAEKLLKPYLNRYPKGAIFLFFAGRIEAIKGNIDAAVRRFEECCEAQQHWKQFHHMCYWELMWCFTYKGQWKMAYFYADLLSKENSWSKATYIYMKAAYLSMFGKEDYKPFGDNEVELFRAVPGLKLKIAGKSLPTEKFAIRKSRRYLSPNPISLPIPALEMMYIWNGYAVIGKQPTLTDGMLEVITKAEEMLAMGPENEYSADDDCLVKLLKGLCLKYLGRIQEAEENFRSISANEKKIKYDHYLIPNALLELALLFMEQGRNEEAIKLLESAKQNYKNYSMESRTHLRIQAATLQARSSLEDGNRSLVSSVSL”, the protein production result is listed as “failed”.

Turning to “MTTATAGLAVELKQSTAQAHEKAEHSTFMSDLLKGRLGVAEFTRLQEQAWLFYTALEQAVDAVRASGFAESLLDPALNRAEVLARDLDKLNGSSEWRSRITASPAVIDYVNRLEEIRDNVDGPALVAHHYVRYLGDLSGGQVIARMMQRHYGVDPEALGFYHFEGIAKLKVYKDEYREKLNNLELSDEQREHLLKEATDAFVFNHQVFADLGKGL”, the protein production result was “not failed”.

As for “MTTDRPLSPPLDHAWIAARIPHSGAMCLLDQVVTWDDTHIRCTTTSHRAPDNPLRAHGRLAAVCGIEYAAQAMAVHGAILGNAQDRPRAGFLASVRSVEAHVERLDTIEAPLTIEAERIGGDGNNVLYRFSVRCGERVLLTGRAAVVLDAAGLGLPDAGALAKANAQAR”, the protein production result is “failed”.

Take “MTTEVKQSPRERLLEAAAALTYRDGVGIGVEALCKAAGVSKRSMYQLFESKDELLAASLKERSAAFVAKALPPADDGRSPRERILYVFERVESQAGAPDFQGCRYLAVQIELKDQAHPASRVAYQIKADLMAFFRSEAERGGASDPDLLARQLILVFDGASARAGIGADNLTGLIVPTLTTLLDAADMH”: the protein production entry is reported as “not failed”.

Regarding “MTTFSHSSTTPSVSVTTASGNNQSQLVATPVPDEQRISFWPQHFGLIPQWVTLEPRVFGWMDRLCEDYCGGIWNLYTLNNGGAFIAPEPDEDDGETWILFNAMNGNRAEMSPEAAGIAACLMTYSHHACRTECYAMTVHYYRLRDYALQHPECSAIMRIID”, the protein production result is reported as “failed”.

As to “MTTGDGRSRLLAAATRLIRTQGFAATSVEAICREAGVTKGAFFHHFPSKEALGVAAAEAWSDVTGRLFAEAPYHRPADPLDRVLAYIDFRRALVAGEIADYTCLVGTLVQEAYGSDPIRAACGASILGHAGTLEADMAAAAEARGVADVDPASLARHTQAVLQGAFILAKAGGGAAAVEEALDHLKRYLRLLFANPGASGA”, the protein production result is recorded as “failed”.

Take “MTTHDRVRLQLQALEALLREHQHWRNDEPQPHQFNSTQPFFMDTMEPLEWLQWGLIPRMHDLLNNNQPLPGAFAVAPYYEMALATDHPQRALILAELEKLDALFADDASLEHHHHHH”: the protein production entry is “failed”.

Consider “MTTIALLGNPNVGKTTLFNALTGSNQHVGNWPGVTVDKKEGFFNSNKIVDLPGIYALDTFSNEEKVSKKFLESGDVDLILNIVDASNLDRNLYLTMQLKDFKKPIVLLLNMNDIAEKKGIKIDPKKLEKAFNLKVIPITASKKEGLDEVKEFLNKGNFEKYLDKNTYSFKDEAHTYKFIEDKLSDCFNRSGNSSTTLTDKLDKVFLNPWLAYPLFIALMYFVFQFTFSWVGQPISDALDGFLGDTFMPYLSDLLSGTAPWFQSLLVDGIVAGVGGIIVLLPIILALFLCIAILEDSGYMARVAFLMDKFMRKIGLSGKAFLPMITGFGCTVPAIMSARTLESEKDRKLTALLAPFMSCNARLPVYVIFAGLFFPDNASMVVASLYILGILVAFILGLVFKNTLFKKDEEPFIIELPEYKVPEVRSVLAQLWDKSKSFLKKAGTIIFAMSVVIWFLQSFNFTGMVEDITHSFLYNIGSFIAPIFAPLGFGDWQASVSLLTGLMAKETIISTMEVIYKGDLTHMLPQFFTALSSYSFMVFVLLYTPCISVVGVMKKEYGGKFTVLSVIFQFLVAWISAFIIYHIGLLIF”, for which the protein production entry is reported as “failed”.

For “MTTIYLVRHGQASFGKANYDELSENGQAQATILGQYLKEILKEQPYVIAGTMKRHLQTAQGALKECFPDTHIYTHAGWNEFNHQQVFANYEPRFKQPELLKQDVAKEQNPRAYLAKIFESAISRWTDGEFHHEYEESWPKFKQRVEIALKMLCDELAQTKPRYAVVFTSGGVISVIAGKILELNPNRTFALNWAITNTSLTTLRLVGNEPQLLSLNEHHFIKVVNPALLTWI”, the protein production entry is recorded as “failed”.

As for “MTTKLDQLTSWLKERKITEVECLISDLTGIARGKISPTNKFIAEKGMRLPESVLLQTVTGDYVEDDIYYDLLDPADIDMVCRPDENAVFLVPWAIEPTAMVIHDTFDKLGNPIELSPRNILKRVLKMYADKGWRPIVAPEMEFYLTKRSDDPDYPLQAPVGRSGRQETGRQSFSIDAANEFDPLFEDMYDWCEAQGLDLDTLIHEEGTAQMEINFRHGDALDLADQILVFKRTMREAALKHNVAATFMAKPMTGEPGSAMHLHQSIVDVKTGKNIFSNADGTMSELFLHHIGGLQKFIPEVLPLFAPNVNSFRRFLPDTSAPVNVEWGEENRTVGLRVPDSSPENRRVENRLAGADANPYLALAASLLCGYIGMVEGIKPSAQVKGRGYERRNLRLPLTIEAALERMENCKPLEQYLGSKFISGYVAVKRAEHENFKRVISSWEREFLLLS”, the protein production result is on record as “failed”.

Consider “MTTLKLFDIEHAWGLPRKVSPRFGARLILRGLHLDYLHDRASFVGEFPPAIKQQFVEAFPAMVKQLERLVATGEIDTTEQHCVSIEHAGFTCEADTLGSHGYLYIAIYQTKAKPLTTSNLTITRLEHHHHHH”, for which the protein production entry is reported as “failed”.

Take “MTTLTRQDLNFGQVVADVLSEFLEVAVHLILYVREVYPVGIFQKRKKYNVPVQMSCHPELNQYIQDTLHCVKPLLEKNDVEKVVVVILDKEHRPVEKFVFEITQPPLLSINSDSLLSHVEQLLRAFILKISVCDAVLDHNPPGCTFTVLVHTREAATRNMEKIQVIKDFPWILADEQDVHMHDPRLIPLKTMTSDILKMQLYVEERAHKNS”: the protein production entry is “not failed”.

“MTTMQQRYDAVKDAMAQIGRLAAQLDGEALREAIGPVLVALGERDELFPRDEFPIRAGKPGGLYQLWRGESGDLALYASAGKTGKKQPPHDHTTWAVIAGVYGEEHNVFFERTDDGSRAGFGTLRQIDALTVVQGNAARLSGEVFHTIEVVSEEDSLHLHLHLYGRALDTLSGRINFATEEGGAYTRFMAVPETYAPWIAPRDLYEMLTDGGELAILDVRENGVYTQGHLFHAASMPLSVFELRVDDGLPSPHVRIVVIDDADGLAEQAVRLLHQRGYHNVAVLQGGQPGWNAAGLPVYTGVFVPSKAFGEVAEHVYGTPSISAVELDALRRSEEVLVLDSRTEQEFNLMSVPGAYSCPGAELVARALDHAGPIVVNCAGRTRSIIGAQSLRNAGKTDVRALENGTMGQHLAGLPLERGKSASYLDRPVAAGAAQAAQAWALGMSIATLDAGELHDMLSNPYRTTYLFDARDPSCSSRATLPRAVAAPGGQLVQQTDYYAPVRNARIVVFDTDGVQAPMTAGWLHQMGWEVYLHRPEATALVAPPRVEYDDERGVPVEAVAADAVIIDVGDSRTYRAGHLAGAAWAPRSRLPALLAQRKPAGPLLFTCADGRVSRLAAADAAAQGYQAAYLKGGTAALGADRLRGDAPQFLTEAIDVWYRPYDRETGIEEAMHQYLSWETGLLDKVRSDPTVAFRI”: the protein production result was “failed”.
